From US20120177664A1 come the findings set out here.

In the test the target is A beta oligomer (synthetic A beta1-40, HCl form, 0.1 mg/ml in PBS, incubated at 37 degrees C for one hour) (UniProt P05067). Description: SPR (Biacore 3000).

Take Anti-A beta antibody 6E10: the Kd (commonly the free concentration of one partner at which half of the binding sites on the other are occupied at equilibrium, for simple one-to-one binding) was determined as 2.91 nM; the koff (usually the first-order rate constant of dissociation) amounted to 0.000168 s⁻¹; the kon – broadly, the second-order rate constant of association – came to 57800 M⁻¹ s⁻¹.
